According to paper PMC11464748, “A novel assay of excess plasma kallikrein-kinin system activation in hereditary angioedema” (Frontiers in Allergy, 2024):
“And” between values parts separate entries of the source, which are not always exact repeats. Equal entries are not always repeated. Blank lines part the entries; values can stand above or below the binder they belong to.

Key:
Details in all cases: both partners purified
[1] = molecular target: T1, cleaved high-molecular-weight kininogen (HKa), purified (Homo sapiens, UniProt P01042, biotin (biotinylated HKa in the Fab screening ELISA) | biotin (biotinylated HKa in the Fab screening ELISA)); test: SPR; in the presence of zinc chloride
T1 construct: heavy chain of HKa, the two-chain disulfide-linked product of high-molecular-weight kininogen after release of bradykinin, human; light chain of HKa, human; the purified HKa standard mainly consists of the 46-kDa light chain; also called cleaved HK; purified HKa standard protein; source: bought: Enzyme Research Laboratories

[2] = molecular target: T1, cleaved high-molecular-weight kininogen …; test: SPR; in the absence of zinc chloride
[3] = molecular target: T2, cleaved high-molecular-weight kininogen (HKa) (Homo sapiens, UniProt P01042); test: SPR; HKa immobilised by amine coupling on a CM5 chip (~400 RU), M4-B4 injected 2 min at 50 uL/min, 15 min dissociation; Biacore 3000, 25°C, HBS-P (10 mM HEPES pH 7.4, 150 mM NaCl, 0.005% P20) with 200 uM ZnCl2; regeneration 10 mM glycine pH 1.5; 1:1 model
T2 construct: the two chains are linked by a disulfide; light chain of HKa (56-kDa or 46-kDa form); the purified HKa standard protein mainly consists of the 46-kDa light chain; also called cleaved HK; source: bought: Enzyme Research Laboratories
T2 sequence (P01042 whole entry, looked up): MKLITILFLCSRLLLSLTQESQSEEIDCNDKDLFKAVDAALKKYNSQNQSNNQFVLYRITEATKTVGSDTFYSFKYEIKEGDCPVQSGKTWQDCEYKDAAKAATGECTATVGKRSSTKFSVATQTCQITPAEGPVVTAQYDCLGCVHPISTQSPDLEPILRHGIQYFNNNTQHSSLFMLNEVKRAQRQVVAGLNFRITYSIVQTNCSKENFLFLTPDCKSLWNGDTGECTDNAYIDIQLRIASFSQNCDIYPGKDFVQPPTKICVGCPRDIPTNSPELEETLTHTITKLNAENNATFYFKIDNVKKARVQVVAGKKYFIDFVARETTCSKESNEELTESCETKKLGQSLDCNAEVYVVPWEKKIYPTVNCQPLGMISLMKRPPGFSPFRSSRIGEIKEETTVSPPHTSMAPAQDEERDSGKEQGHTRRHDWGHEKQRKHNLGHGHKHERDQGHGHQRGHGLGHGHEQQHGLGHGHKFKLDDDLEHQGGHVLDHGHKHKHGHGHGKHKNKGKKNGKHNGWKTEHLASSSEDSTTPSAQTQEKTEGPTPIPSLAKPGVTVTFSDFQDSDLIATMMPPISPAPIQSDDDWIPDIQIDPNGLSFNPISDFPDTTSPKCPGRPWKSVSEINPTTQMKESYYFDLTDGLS

[4] = molecular target: T2, cleaved high-molecular-weight kininogen …; test: SPR; HKa immobilised by amine coupling on a CM5 chip (~400 RU), M4-B4 injected 2 min at 50 uL/min, 15 min dissociation; Biacore 3000, 25°C, HBS-P (10 mM HEPES pH 7.4, 150 mM NaCl, 0.005% P20); no added ZnCl2; 1:1 model

Kd [1]: 1.06 ± 0.25 nM
Kd [2]: 6.08 ± 0.26 nM
B1: M4-B4 antibody (Fab or IgG, format not told for the experiment) (antibody, V domains shown)
VH: EVQLLESGGGLVQPGGSLRLSCAASGFTFSFYVMVWVRQAPGKGLEWVSGISPSGGNTAYADSVKGRFTISRDNSKNTLYLQMNSLRAEDTAVYYCARKLFYYDDTKGYFDFWGQGTLVTVSS
VL: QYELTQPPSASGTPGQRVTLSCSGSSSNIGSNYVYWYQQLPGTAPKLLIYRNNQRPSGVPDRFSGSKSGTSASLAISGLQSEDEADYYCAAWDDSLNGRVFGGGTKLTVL
notes: variable part as the heavy chain of m1; as the light chain of m1; The optimised ELISA coated 'the M4-B4 Fab or IgG'; also called HKa-specific antibody

Kd [3]: 1.09 nM and 1.24 nM and 0.881 nM
koff [3]: 0.00125 s⁻¹ and 0.00172 s⁻¹ and 0.00156 s⁻¹ and 0.00164 s⁻¹
kon [3]: 1.38e+06 M⁻¹ s⁻¹ and 1.77e+06 M⁻¹ s⁻¹ and 1.58e+06 M⁻¹ s⁻¹ and 1.15e+06 M⁻¹ s⁻¹
Kd [4]: 5.9 nM and 6.26 nM
koff [4]: 0.0067 s⁻¹ and 0.00616 s⁻¹ and 0.00643 s⁻¹
kon [4]: 1.1e+06 M⁻¹ s⁻¹ (2×) and 984000 M⁻¹ s⁻¹
B2: M4-B4 (antibody, V domains shown)
VH: B1 VH
VL: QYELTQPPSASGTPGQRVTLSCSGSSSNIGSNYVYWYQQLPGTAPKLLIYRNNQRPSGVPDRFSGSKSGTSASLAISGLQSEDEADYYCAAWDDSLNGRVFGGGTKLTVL
notes: The legend of the SPR says only 'M4-B4 injected'; also called M004-B04; 559B-M0004-B04; source: Fab: E. coli, purified (protein A Sepharose); IgG1: 293T cells, transiently expressed, purified (protein A Sepharose)
